Experimental findings from patent US20250333513A1 (Immunocore, published 2025) are described below.

Test [1] concerns the target T1, extracellular region of human PD-1 (human, UniProt Q15116 25-170).
T1 construct: also called extracellular domain of human PD-1
The experiment in a line: method not given; lower end of the printed range 50-70 nM.

Test [2] deals with T1, extracellular region of human PD-1. The test is described as follows: method not given.

T1 sequence (Q15116 25-170 limits assumed): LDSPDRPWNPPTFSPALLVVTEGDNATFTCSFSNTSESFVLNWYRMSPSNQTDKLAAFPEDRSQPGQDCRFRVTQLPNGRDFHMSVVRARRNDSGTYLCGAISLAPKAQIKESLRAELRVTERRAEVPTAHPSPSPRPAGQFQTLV

B1: PD-1 agonist VHH (camelid PD-1 agonist VHH) (VHH)
VHH: EVQLVESGGALVQPGGSLRLSCAASGFTFSSYAMTWVRQAPGKGPEWVSAIASDGASTSYLDSVKGRFTVSRDNAKNTLYLQMNSLKPEDTAVYYCARGGYLTYDRYGQGTQVTVSS
notes: also called PD-1 VHH domain; PD-1 VHH antibody
Molecule B1 displayed a Kd in test [1] of 50 to 70 nM. For the same molecule, in test [2], the binding half-life was in the range of 15 to 20 s.

By Kd is commonly meant the free concentration of one partner at which half of the binding sites on the other are occupied at equilibrium, for simple one-to-one binding. The low end stands for a tighter complex, the high end for a looser complex.
